Measurements published in the supplement of paper PMC10567573.

B1: NP_116010.1 (parent)
chain: HSLRAVSTDPPHHDHHDEFCLMP

Experiments:
[1] = variants of: B1; experiment: protein stability index of a GFP-peptide fusion (GPS, HEK-293T) (PSI 1-6); higher = more stable; settings: c terminus: native
[2] = variants of: B1; experiment: as above; settings: c terminus: native; remark: listed apart in the source

Variant | protein stability index [1] | protein stability index [2]
HSLRAVSTDPPHHDHHDEFMLMP | 3.14 | 2.16
HSLRAVSTDPPHHQHHDEFCLMP | 2.45 | 2.61
HSLRAVSTDPPHHDCHDEFCLMP | 2.52 | 4.24
HSLRAVSEDPPHHDHHDEFCLMP | 2.45 | 2.89
HSLRAVSTDPGHHDHHDEFCLMP | 2.59 | 2.46
HSLRAVSTDPPHHVHHDEFCLMP | 2.27 | –
HSLRAVSTDPPGHDHHDEFCLMP | 2.68 | 2.16
HSLRAVSTCPPHHDHHDEFCLMP | 2.45 | 3.11
HSLRAVSTDPPHHDHHDYFCLMP | 2.22 | 2.08
HSLRAVSTDPPHHDHHDEFCLML | 3.24 | 2.66
HSLRAVSTDPNHHDHHDEFCLMP | 2.5 | 2.41
ISLRAVSTDPPHHDHHDEFCLMP | 2.75 | 1.82
HSLRAVITDPPHHDHHDEFCLMP | 2.4 | 2.93
HSLRAVSTDPPHHDHHDEACLMP | 2.57 | 3.6
HSLRAVSTDYPHHDHHDEFCLMP | 2.4 | 2.47
HSLRAVSTDPPHHDHHDEFALMP | 2.8 | 2.05
HSLRAVSTDPVHHDHHDEFCLMP | 2.21 | 1.74
HSLRAVSTDPPHWDHHDEFCLMP | 2.4 | 1.65
HSLRAVSTDPPHHDHHDEFCLMD | 4.52 | 4.48
HSLRAVSTDPPHHDHHDTFCLMP | 2.72 | 2.2
HSLRASSTDPPHHDHHDEFCLMP | 2.62 | 3.49
HSLRAVSTDPPHHDHHEEFCLMP | 2.66 | 2.59
HSLRWVSTDPPHHDHHDEFCLMP | 2.96 | 4.16
HSLRAVSTDPPHHDFHDEFCLMP | 2.32 | 2.69
HSLRAVSTDPPHHDHHDEECLMP | 2.57 | 2.82
HSLRAVSTDFPHHDHHDEFCLMP | 2.67 | –

Variant | protein stability index [1] | protein stability index [2]
HSLRAVSTDPPHHDHKDEFCLMP | 2.81 | 1.86
HSLRMVSTDPPHHDHHDEFCLMP | 1.9 | 2.19
HSLRAVSTDPPHHDHCDEFCLMP | 2.66 | 2.44
HSLRAVSTDPPHEDHHDEFCLMP | 3 | 2.37
HSLRAVSTDPPHHDWHDEFCLMP | 2.14 | 2.11
HSLRAVSTDPPHHDHHDEFCLMN | 4.23 | 3.49
HSLRAVSTDDPHHDHHDEFCLMP | 2.88 | –
HSLRAVSTDPPHHDHGDEFCLMP | 2.64 | 1.99
HSLRAVWTDPPHHDHHDEFCLMP | 2.31 | 3.98
HSLRAVSTDPYHHDHHDEFCLMP | 2.26 | 3.15
HSLRAVSTDVPHHDHHDEFCLMP | 2.29 | 2.25
HSLRGVSTDPPHHDHHDEFCLMP | 3.03 | 2.44
HSLRAVSTDPPHHEHHDEFCLMP | 2.5 | –
HSLRAVSTDPPHHDAHDEFCLMP | 2.57 | 1.93
HSLMAVSTDPPHHDHHDEFCLMP | 2.45 | 2
HSLRAVSTDPPHHDHHDWFCLMP | 2.61 | –
HSLRAVSTDPPRHDHHDEFCLMP | 2.32 | 2.76
HSLRAVQTDPPHHDHHDEFCLMP | 2.58 | 3.14
HSLRKVSTDPPHHDHHDEFCLMP | 2.94 | 2.07
HSLRAVSTDPPHHDHHDEFCLMS | 3.56 | 2.77
HSLRAVSTDPPHHGHHDEFCLMP | 2.23 | –
HSLRAVSSDPPHHDHHDEFCLMP | 2.13 | 2.85
HSLRAVSTDPPLHDHHDEFCLMP | 2.79 | 2.83
HSLRANSTDPPHHDHHDEFCLMP | 2.98 | 2.76
YSLRAVSTDPPHHDHHDEFCLMP | 2.63 | 1.19
HSLRAVSTDPPHHDHWDEFCLMP | 2.32 | –

Variant | protein stability index [1] | protein stability index [2]
HSLRAVSTDPPHHDHHSEFCLMP | 2.31 | 2.78
HSLRAVSIDPPHHDHHDEFCLMP | 2.59 | 2.13
HSLRAVSTDPPEHDHHDEFCLMP | 2.87 | 2.75
HSLRAVSTDPPHHMHHDEFCLMP | 2.29 | 3.39
HSLRAVSTDHPHHDHHDEFCLMP | 2.43 | 2.57
HSLRAVSTDPPHHLHHDEFCLMP | 2.02 | 2.33
HSLRAVSTDRPHHDHHDEFCLMP | 2.26 | 3.17
HSLRAVSTDPPHHDEHDEFCLMP | 3 | 1.67
HSLRAYSTDPPHHDHHDEFCLMP | 2.41 | 3.34
HSLRAVSTDPPHHDHHDEFLLMP | 4.58 | 3.49
HHLRAVSTDPPHHDHHDEFCLMP | 2.69 | 1.95
HSLRAVSTDPCHHDHHDEFCLMP | 2.44 | 1.57
HSLRAVSTDPPHHDHHDEFCMMP | 2.39 | 2.21
HSLIAVSTDPPHHDHHDEFCLMP | 2.92 | 1.55
HSLRAVSTRPPHHDHHDEFCLMP | 2.2 | –
HSLRAVSTDPPHHDHHDEFCRMP | 2.33 | 1.99
HSLRAVVTDPPHHDHHDEFCLMP | 2.39 | 2.7
ASLRAVSTDPPHHDHHDEFCLMP | 3.26 | 1.49
HSLRAVSTDPPHHDVHDEFCLMP | 2.81 | 3.14
HSLRAVSTDPPHHDHHDEFCLME | 4.61 | 3.77
HSLRAVSTDPPHHDHHCEFCLMP | 2.46 | 2.45
HSLRAVSTDIPHHDHHDEFCLMP | 2.48 | 3.15
QSLRAVSTDPPHHDHHDEFCLMP | 3.06 | 1.9
HSLRAVSTDPPHADHHDEFCLMP | 2.31 | 2.86
HSLRAVSTDPPHHDHHDEFCLEP | 3.21 | 2.4
HSLRAVSNDPPHHDHHDEFCLMP | 2.36 | 2.4

Variant | protein stability index [1] | protein stability index [2]
GSLRAVSTDPPHHDHHDEFCLMP | 3.41 | 2.65
HSLRAVSTDPPHHDHHGEFCLMP | 2.11 | 1.88
HSLRTVSTDPPHHDHHDEFCLMP | 2.38 | 2.67
HSLRAVSTDPPHHDHHDAFCLMP | 2.37 | 1.58
HSERAVSTDPPHHDHHDEFCLMP | 2.28 | 2.11
HSLRAVSTDPPHHSHHDEFCLMP | 2.23 | 2.34
HSLRAFSTDPPHHDHHDEFCLMP | 1.92 | 2.8
HMLRAVSTDPPHHDHHDEFCLMP | 2.41 | 2.38
HSLRAVSTDPPHHDHHVEFCLMP | 2.33 | 2.93
HSVRAVSTDPPHHDHHDEFCLMP | 2.75 | 1.7
HFLRAVSTDPPHHDHHDEFCLMP | 2.24 | 3.2
HSLRAVSTDPPHHDSHDEFCLMP | 2.76 | 1.8
HSLTAVSTDPPHHDHHDEFCLMP | 3.08 | 2.84
HSDRAVSTDPPHHDHHDEFCLMP | 2.5 | 2.14
HSLRAVSTDPPHHDHHDEVCLMP | 2.41 | 2.17
HSQRAVSTDPPHHDHHDEFCLMP | 2.78 | 2.52
SSLRAVSTDPPHHDHHDEFCLMP | 3.04 | 2.26
HSLRAVSTDPIHHDHHDEFCLMP | 2.58 | 2.28
HSLRAVSTDPPHHDHHHEFCLMP | 2.21 | –
HSLRADSTDPPHHDHHDEFCLMP | 2.64 | 2.57
KSLRAVSTDPPHHDHHDEFCLMP | 3.29 | 2.43
HSLRAVSMDPPHHDHHDEFCLMP | 2.48 | 2.27
HSLRAVSTDSPHHDHHDEFCLMP | 2.03 | 2.05
HSLRAVSTDPPHHDHHDEFCLMG | 3.75 | 2.55
